Measured values: patent US20220220166, “PPR PROTEIN CAUSING LESS AGGREGATION AND USE OF THE SAME” (EditForce, Inc., published 2022)
Substitutions are numbered along the chain they refer to.

What was measured:
Assay in all cases: vs PPRcag_1; streptavidin plate luciferase assay, RT
Conditions in all cases: tags: N-terminal luciferase (Nluc), C-terminal 6xHis; label: 5'-biotin
[1] = molecular target: T1, PPRcag_3 (6N9Q), Nluc-PPR-His6 (synthetic construct)
T1 chain: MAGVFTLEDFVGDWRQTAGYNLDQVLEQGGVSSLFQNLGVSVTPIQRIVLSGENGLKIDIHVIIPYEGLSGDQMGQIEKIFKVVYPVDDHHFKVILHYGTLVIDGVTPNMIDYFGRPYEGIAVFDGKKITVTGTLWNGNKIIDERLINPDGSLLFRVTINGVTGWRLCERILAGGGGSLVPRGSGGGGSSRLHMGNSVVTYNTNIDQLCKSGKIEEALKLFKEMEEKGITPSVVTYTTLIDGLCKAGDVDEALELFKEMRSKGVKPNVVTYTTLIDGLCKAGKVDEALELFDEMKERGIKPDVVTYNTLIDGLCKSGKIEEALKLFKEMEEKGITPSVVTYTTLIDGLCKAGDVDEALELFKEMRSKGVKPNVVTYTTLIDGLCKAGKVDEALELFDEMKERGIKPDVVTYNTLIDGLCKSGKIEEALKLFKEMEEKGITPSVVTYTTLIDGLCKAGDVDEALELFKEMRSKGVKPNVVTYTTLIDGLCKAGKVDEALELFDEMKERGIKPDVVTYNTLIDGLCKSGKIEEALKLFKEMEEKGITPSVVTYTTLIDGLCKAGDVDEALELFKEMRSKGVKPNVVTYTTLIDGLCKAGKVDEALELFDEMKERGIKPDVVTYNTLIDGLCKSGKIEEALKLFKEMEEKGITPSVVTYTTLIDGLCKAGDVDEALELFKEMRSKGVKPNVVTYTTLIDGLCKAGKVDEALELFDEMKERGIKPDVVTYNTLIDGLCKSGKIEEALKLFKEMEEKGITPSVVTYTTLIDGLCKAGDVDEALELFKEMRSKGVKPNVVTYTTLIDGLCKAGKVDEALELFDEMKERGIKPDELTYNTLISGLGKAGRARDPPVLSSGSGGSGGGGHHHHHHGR
Protocol: (§1) The binding experiment for PPR protein and RNA was performed by an experimental method for binding of PPR protein and biotinylated RNA on a streptavidin plate.
(§2) There were synthesized RNA probes of 30-base RNAs containing the target CAGx6 sequence, untargeted CGGx6, CUGx6, and CCGx6, and the Dlb ([…]) sequence (positions 8 to 25 of SEQ ID NO: 42) modified with biotin at the 5′-end (in that order, SEQ ID NOS: 38 to 42, respectively) (Grainer). To a streptavidin-coated plate (Thermo Fisher, Cat. No. 15502), the 5′-end biotinylated RNA probes were added, reaction was allowed at room temperature for 30 minutes, and the plate was washed with a probe washing buffer (20 mM Tris-HCl, pH 7.6, 150 mM NaCl, 5 mM MgCl₂, 0.5% NP-40, 1 mM DTT, 0.1% BSA). For background measurement, wells to which biotinylated RNA was not added, but the lysis buffer was added were also prepared. Then, a blocking buffer (20 mM Tris-HCl, pH 7.6, 150 mM NaCl, 5 mM MgCl₂, 0.5% NP-40, 1 mM […], 1% BSA) was added, and the plate surface was blocked at room temperature for 30 minutes. Then, 100 μL of the E. coli lysate containing luciferase-fused PPR protein having a luminescence of 1.5×10⁸ LU/μL was added, and the binding reaction was allowed at room temperature for 30 minutes. Then, the plate was washed 5 times with 200 μL of a washing buffer (20 mM Tris-HCl, pH 7.6, 150 mM NaCl, 5 mM MgCl₂, 0.5% NP-40, 1 mM DTT). To each well, 40 μL of luciferase substrate (Promega, E151A) diluted 2,500-fold with the washing buffer was added, reaction was allowed for 5 minutes, and then luminescence was measured with a plate reader (PerkinElmer, Cat. No. 5103-35).

[2] = molecular target: T2, PPRcag_5 (6N9K), Nluc-PPR-His6 (synthetic construct)
T2 chain: T1 chain with Q207K
Protocol: as §1, §2

[3] = molecular target: T3, PPRcag_6 (6D9G), Nluc-PPR-His6 (synthetic construct)
T3 chain: T1 chain with N204D, Q207G
Protocol: as §1, §2

[4] = molecular target: T4, PPRcag_4 (6N9E), Nluc-PPR-His6 (synthetic construct)
T4 chain: T1 chain with Q207E
Protocol: as §1, §2

## GACAUGCCAGCAGCAGCAGCAGCAGGACUG (ssRNA) [CAGx6 RNA probe]
[1]
  binding signal: ~80%
[2]
  binding signal: ~120%
[3]
  binding signal: ~130%
[4]
  binding signal: ~60%
